In article PMC5777823 (eLife, 2017):

Molecular target: T1, CENP-L:CENP-N^230-C complex (human, UniProt Q8N0S6 1-344; Q96H22 230-339)
T1 construct: CENP-L, human; CENP-N, human, residues 230 to the C-terminus of the 339-residue protein; Form used in SEC and ITC, named without GST; tag probably cleaved with 3C protease; also called CENP-LN^230-C; CENP-LN^230-C dimer; source: Tnao38 insect cells (baculovirus, co-expressed), purified (GSH-Sepharose, Superdex 200)
Experiment: ITC; 25°C, ITC200; 20 mM HEPES pH 7.5, 2.5% glycerol, 300 mM NaCl, 1 mM TCEP; protein in the cell at 5–8 µM, ligand at 50–80 µM; single site binding model
Details: both partners purified

T1 sequence (Q8N0S6 whole entry, chain 1 of 2, the tested form may be a part): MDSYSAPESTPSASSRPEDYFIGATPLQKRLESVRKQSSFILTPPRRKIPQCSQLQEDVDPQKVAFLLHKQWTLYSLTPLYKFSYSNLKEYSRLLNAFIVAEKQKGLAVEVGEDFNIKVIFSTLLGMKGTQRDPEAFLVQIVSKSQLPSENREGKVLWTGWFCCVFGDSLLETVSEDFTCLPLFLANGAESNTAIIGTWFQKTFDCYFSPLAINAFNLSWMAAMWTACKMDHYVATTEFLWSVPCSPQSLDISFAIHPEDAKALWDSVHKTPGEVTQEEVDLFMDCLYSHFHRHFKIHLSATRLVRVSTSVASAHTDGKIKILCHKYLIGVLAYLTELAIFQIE
T1 sequence (Q96H22 230-339, chain 2 of 2): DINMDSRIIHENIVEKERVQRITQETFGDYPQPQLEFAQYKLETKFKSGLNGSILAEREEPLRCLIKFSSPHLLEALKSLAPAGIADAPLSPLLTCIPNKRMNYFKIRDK

Kd: 1000 nM
B1: CENP-C^225-364 (domain or fragment, human, UniProt Q03188 225-364, looked up)
chain: SDEEDKTSEGQERKPSGSSQNRIRDSEYEIQRQAKKSFSTLFLETVKRKSESSPIVRHAATAPPHSCPPDDTKLIEDEFIIDESDQSFASRSWITIPRKAGSLKQRTISPAESTALLQGRKSREKHHNILPKTLANDKHS
notes: pGEX-6P-2rbs; named without GST in the assays; source: bacteria, purified as described (Klare et al., 2015)
